For 1 molecule, Initial reaction rates results are on record in patent publication US8715970B2, “Enzymatically catalyzed method of preparing mono-acylated polyols” (BASF SE, priority 2009, dated 2014).

The nature of assay [1]: Enzyme selectivities and specificities towards 1,4-butanediol with vinyl acetate or vinyl butyrate in MTBE (Example 7). Type of assay: biochemical. As to the method: (§1) Reactions using the CALB mutants as described in Example 5 and Example 6 were run with two different straight chain primary diols: 1,2-ethanediol, ≧99.5% from MERCK and 1,4-butanediol, ≧99% from Aldrich. Two different acyl donors were used: vinyl acetate, ≧99% from Fluka and vinyl butyrate, >99% from Fluka. Decane, ≧99% from Fluka, was used as internal standard. MTBE, 99.5% from Lab-Scan was used as solvent.
(§2) Each diol was dissolved to a concentration of 100 mM together with 1 M of the acyl donor and 20 mM decane in MTBE. Reactions were started by adding 3 ml reaction solution to a specific amount of enzyme carrier beads. Different amounts of enzyme carrier beads were used for the different reactions. For reactions with 1,2-ethanediol and vinyl acetate, 19.7 mg wild type, 22.5 mg A282L, 50.5 mg A281V, and 45.5 A281E CALB were used. […]
(§3) All reactions were analyzed on GC, Hewlett Packard 5890 series II. Two different 25 m×0.32 mm WCOT fused silica columns were used, depending on the different substrates and products that were analyzed. […] The response factor for each diol was determined in relationship to decane. When all diol and mono-ester had converted to di-ester, the response factor for the di-ester could be determined in relationship to decane. The concentration of mono-ester in each reaction was determined by subtracting the concentration of di-ester from the starting concentration of diol.

Assay [2] can be described thus: Enzyme selectivities and specificities towards 1,2-ethanediol with vinyl acetate or vinyl butyrate in MTBE (Example 7). The assay is classed as biochemical. As for the experimental part:
as §1, §2, §3

B1: WT: non-mutated Candida antarctica lipase B (CALB), SEQ ID NO: 2, immobilized on carrier beads (protein, listed as Candida antarctica)
chain: LPSGSDPAFSQPKSVLDAGLTCQGASPSSVSKPILLVPGTGTTGPQSFDSNWIPLSAQLGYTPCWISPPPFMLNDTQVNTEYMVNAITTLYAGSGNNKLPVLTWSQGGLVAQWGLTFFPSIRSKVDRLMAFAPDYKGTVLAGPLDALAVSAPSVWQQTTGSALTTALRNAGGLTQIVPTTNLYSATDEIVQPQVSNSPLDSSYLFNGKNVQAQAVCGPLFVIDHAGSLTSQFSYVVGRSALRSTTGQARSADYGITDCNPLPANDLTPEQKVAAAALLAPAAAAIVAGPKQNCEPDLMPYARPFAVGKRTCSGIVTP
modifications: immobilized on carrier beads
Turning to B1, the Initial reaction rates in assay [1] (vinyl acetate) is 0.12 mol/g/min; in assay [1] (vinyl butyrate), 0.24 mol/g/min; in assay [2] (vinyl acetate), 0.21 mol/g/min; in assay [2] (vinyl butyrate), 0.36 mol/g/min.
